Results from publication PMC4882459.

Biological target: ES-62 (Acanthocheilonema viteae)
Assay: SPR; Biacore 3000; 300 RU of ES-62 amine-coupled to a CM5 chip; CRP 10 ug/ml to 20 ng/ml flowed at 10 ul/min; HBS with 1 mM CaCl2 and 0.005% P20, pH 7.4; Langmuir 1:1 analysis, ka and kd calculated separately; avidity

B1: C-reactive protein (native, human) (natural protein)
chain: QTDMSRKAFVFPKESDTSYVSLKAPLTKPLKAFTVCLHFYTELSSTRGYSIFSYATKRQDNEILIFWSKDIGYSFTVGGSEILFEVPEVTVAPVHICTSWESASGIVEFWVDGKPRVRKSLKKGYTVGAEASIILGQEQDSFGGNFEGSQSLVGDIGNVNMWDFVLSPDEINTIYLGGPFSPNVLNWRALKYEVQGEVFTKPQLWP
Kd: 0.1 nM | koff: 0.0006 to 0.0014 s⁻¹
